Patent US20040009486A1, “Compositions and methods utilizing DNA polymerases” (priority 1999, published 2004)

Columns and labels:
primer:template = experiment: Fidelity screen with rhodamine labeled non-complementary ddNTP; type: biochemical; conditions: R110-labeled incorrect ddNTP
Experimental: Reactions (10 μl) contained 1 unit of enzyme in 1× reaction buffer, 15 nM primer template, 25 nM of unlabeled complementary ddNTP, and 25, 100, 500, or 1000 nM of rhodamine labeled non-complementary ddNTP in four separate reactions. The reactions were incubated in a Perkin-Elmer 9600 for 25 cycles as follows: 96° C. for 10 s, 50° C. for 5 s, and 60° C. for 30 s. The reactions were then quenched with ice-cold 0.2 M EDTA (final concentration) and the products were purified from unincorporated rhodamine labeled ddNTPs and analyzed as described above.
Fidelity was determined as the tendency of a DNA polymerase to incorporate the correct nucleotide in the presence of increasing amounts of a non-complementary nucleotide. These assays employed constant amounts of primer:template, an unlabeled complementary ddNTP and DNA polymerase, and various concentrations of a rhodamine-labeled non-complementary ddNTP, as described in the Experimental Protocol. The amount of misextended primers is plotted against the ratio of rhodamine-labeled incorrect ddNTP/unlabeled correct ddNTP (FIG. 18 panels A and B). We performed similar assays for all possible mispairs (Table IX).
To address these concerns, the insertion fidelity of the JDF-3 P410L/A485T and Taq F667Y mutants was compared. In the first set of fidelity assays, a constant amount of primer:template, an unlabeled complementary ddNTP, and increasing concentrations of R110-labeled non-complementary ddNTP was used (Materials and Methods). […] The amount of misextended primers was determined and plotted against the ratio of R110-labeled incorrect ddNTP/unlabeled correct ddNTP (FIG. 27, panels A and B). Similar assays for all 12 possible mispairs was performed (ddG:dT, ddT:dG, ddT:dC, ddC:dT, ddC:dA, ddA:dC, ddA:dG, ddG:dA, ddT:dT, ddC:dC, ddA:dA, ddG:dG). […] The other mispairs are formed less frequently, and at similar rates for the JDF-3 P410L/A485T and Taq F667Y mutants (data not shown).
Fidelity assays using labeled ddNTPs (10 μl) contained 1 unit DNA polymerase in 1× reaction buffer, 15 nM primer: template, 25 nM of unlabeled complementary ddNTP, and 25, 100, 500, or 1000 nM of rhodamine-labeled non-complementary ddNTP in four separate reactions. The reactions were incubated in a Perkin-Elmer 9600 for 25 cycles as follows: 96° C. for 10 s, 50° C. for 5 s, and 60° C. for 30 s. The reactions were quenched and analyzed as above.

[1] = cited from earlier work
[2] = Gardner and Jack, 1999; cited from earlier work
[3] = Reha-Krantz et al., 1993; cited from earlier work
DNA = experiment: Polymerase constant for DNA (Table IV); type: biochemical; conditions: head names no parameter
From the text: (§1) Recombinant JDF-3 DNA polymerase was purified as described below (see “Purification of JDF-3” (method 1)). The biochemical properties of JDF-3 DNA polymerase have been compared to those of other commercially available archaeal DNA polymerases. […] JDF-3 DNA polymerase was therefore chosen for development of a DNA sequencing enzyme.

[4] = Polymerase constant for dNTP (Table IV); type: biochemical; conditions: head names no parameter
From the text: as §1

Primed M13 = experiment: Polymerase specific activity on primed M13 (Table IV); type: biochemical
From the text: as §1

Activated DNA = experiment: Polymerase specific activity on activated DNA (Table IV); type: biochemical
Experimental: as §1
DNA polymerase activity was measured using purified JDF-3 polymerase mutants or heat-treated bacterial extracts prepared from various mutant clones. DNA polymerase activity was measured by monitoring the incorporation of ^3H-TTP into activated calf thymus DNA. A typical DNA polymerase reaction cocktail contained:
Incorporation was measured by adding 1 μl of polymerase samples to 10 μl aliquots of polymerase cocktail. DNA polymerase samples were diluted in a suitable storage buffer (e.g., 25 mM Tris-HCl (pH 7.5), 100 mM KCl, 0.1 mM EDTA, 1 mM DTT, 0.1% (v/v) Tween 20, 0.1% (v/v) Igepal 630, 10 μg/ml BSA, and 50% (v/v) glycerol). Polymerization reactions were conducted for 30 minutes at 72° C. Extension reactions were quenched on ice, and then 5 μl aliquots were spotted immediately onto DE81 ion-exchange filters (2.3 cm; Whatman #3658323). Unincorporated [^3H]TTP was removed by 6 washes with 2×SCC (0.3M NaCl, 30 mM sodium citrate, pH 7.0), followed by a brief wash with 100% ethanol. Incorporated radioactivity was measured by scintillation counting. […]

[5] = 3′ to 5′ exonuclease activity, Kong et al. method, bacterial lysates; type: biochemical
Experimental: To analyze JDF-3 mutant proteins, the DNA sequence encoding JDF-3 DNA polymerase was PCR amplified using primers GGGAAACATATGATCCTTGACGTTGATTAC (where NdeI site in bold and start codon underlined) and GGGAAAGGATCCTCACTTCTTCTTCCCCTTC (where BamHI site shown in bold type). The PCR products were digested, purified, and ligated into a high expression level vector using standard methods. Plasmid clones were transformed into BL21(DE3). Recombinant bacterial clones were grown using standard procedures and JDF-3 polymerase mutants were expressed in the absence of induction. The exonuclease and polymerase activities of recombinant clones were assayed using bacterial lysates. Typically, crude extracts were heated at 70° C. for 15-30 minutes and then centrifuged to obtain a cleared lysate.
There are several methods of measuring 3′ to 5′ exonuclease activity known in the art, including that of Kong et al. (Kong et al., 1993, J. Biol. Chem. 268: 1965) and that of Southworth et al. (Southworth et al., 1996, Proc. Natl. Acad. Sci. U.S.A. 93: 5281), the full contents of both of which are hereby incorporated by reference. The exonuclease activity of wild type and active mutant polymerases as measured by the Kong et al. method were as follows: […]

Molecule: AmpliTaq FS: Taq F667Y mutant DNA polymerase (ABI / Perkin Elmer)
- ddG:dT mispair formation frequency, higher than JDF-3 P410L/A485T (primer:template): 20 fold
- ddT:dC mispair formation frequency, higher than JDF-3 P410L/A485T (primer:template): 3 fold

Molecule: Y412F: VENT DNA polymerase site-directed mutant Y412F (Gardner and Jack, 1999)
- analog incorporation ([1]; Gardner and Jack, 1999): no change in analog incorporation

Molecule: Y412V: VENT DNA polymerase site-directed mutant Y412V (Gardner and Jack, 1999)
- dideoxynucleotide incorporation relative to unmutated / wild type enzyme ([1]; literature values): 2 fold
- increase in incorporation of ribonucleotide ATP [2]: 200 fold

B1: L412M: L412M bacteriophage T4 DNA polymerase mutant (Reha-Krantz et al., 1993) (protein, UniProt P04415 1-898, looked up, variant L412M)
DNA-directed DNA polymerase: MKEFYISIETVGNNIVERYIDENGKERTREVEYLPTMFRHCKEESKYKDIYGKNCAPQKFPSMKDARDWMKRMEDIGLEALGMNDFKLAYISDTYGSEIVYDRKFVRVANCDIEVTGDKFPDPMKAEYEIDAITHYDSIDDRFYVFDLLNSMYGSVSKWDAKLAAKLDCEGGDEVPQEILDRVIYMPFDNERDMLMEYINLWEQKRPAIFTGWNIEGFDVPYIMNRVKMILGERSMKRFSPIGRVKSKLIQNMYGSKEIYSIDGVSILDYLDLYKKFAFTNLPSFSLESVAQHETKKGKLPYDGPINKLRETNHQRYISYNIIDVESVQAIDKIRGFIDLVLSMSYYAKMPFSGVMSPIKTWDAIIFNSLKGEHKVIPQQGSHVKQSFPGAFVFEPKPIARRYIMSFDLTSMYPSIIRQVNISPETIRGQFKVHPIHEYIAGTAPKPSDEYSCSPNGWMYDKHQEGIIPKEIAKVFFQRKDWKKKMFAEEMNAEAIKKIIMKGAGSCSTKPEVERYVKFSDDFLNELSNYTESVLNSLIEECEKAATLANTNQLNRKILINSLYGALGNIHFRYYDLRNATAITIFGQVGIQWIARKINEYLNKVCGTNDEDFIAAGDTDSVYVCVDKVIEKVGLDRFKEQNDLVEFMNQFGKKKMEPMIDVAYRELCDYMNNREHLMHMDREAISCPPLGSKGVGGFWKAKKRYALNVYDMEDKRFAEPHLKIMGMETQQSSTPKAVQEALEESIRRILQEGEESVQEYYKNFEKEYRQLDYKVIAEVKTANDIAKYDDKGWPGFKCPFHIRGVLTYRRAVSGLGVAPILDGNKVMVLPLREGNPFGDKCIAWPSGTELPKEIRSDVLSWIDHSTLFQKSFVKPLAGMCESAGMDYEEKASLDFLFG
- ddGTP needed for inhibition, less than wild-type polymerase [3]: 50 fold

B2: Pfu: Family B DNA polymerase from Pyrococcus furiosus (protein, UniProt P61875 1-775, looked up)
DNA polymerase: MILDVDYITEEGKPVIRLFKKENGKFKIEHDRTFRPYIYALLRDDSKIEEVKKITGERHGKIVRIVDVEKVEKKFLGKPITVWKLYLEHPQDVPTIREKVREHPAVVDIFEYDIPFAKRYLIDKGLIPMEGEEELKILAFDIETLYHEGEEFGKGPIIMISYADENEAKVITWKNIDLPYVEVVSSEREMIKRFLRIIREKDPDIIVTYNGDSFDFPYLAKRAEKLGIKLTIGRDGSEPKMQRIGDMTAVEVKGRIHFDLYHVITRTINLPTYTLEAVYEAIFGKPKEKVYADEIAKAWESGENLERVAKYSMEDAKATYELGKEFLPMEIQLSRLVGQPLWDVSRSSTGNLVEWFLLRKAYERNEVAPNKPSEEEYQRRLRESYTGGFVKEPEKGLWENIVYLDFRALYPSIIITHNVSPDTLNLEGCKNYDIAPQVGHKFCKDIPGFIPSLLGHLLEERQKIKTKMKETQDPIEKILLDYRQKAIKLLANSFYGYYGYAKARWYCKECAESVTAWGRKYIELVWKELEEKFGFKVLYIDTDGLYATIPGGESEEIKKKALEFVKYINSKLPGLLELEYEGFYKRGFFVTKKRYAVIDEEGKVITRGLEIVRRDWSEIAKETQARVLETILKHGDVEEAVRIVKEVIQKLANYEIPPEKLAIYEQITRPLHEYKAIGPHVAVAKKLAAKGVKIKPGMVIGYIVLRGDGPISNRAILAEEYDPKKHKYDAEYYIENQVLPAVLRILEGFGYRKEDLRYQKTRQVGLTSWLNIKKS
- DNA (DNA): 0.7 nM
- dNTP (μM each) [4]: 16 ± 2 μM each
- Specific Activity (U/mg) × 10^4 Primed M13 (Primed M13): 2.0 ± .02 (U/mg) × 10^4

B3: JDF-3: Recombinant wild-type Thermococcus species JDF-3 Family B DNA polymerase (SEQ ID NO: 2) (protein)
chain: MILDVDYITENGKPVIRVFKKENGEFRIEYDREFEPYFYALLRDDSAIEEIKKITAERHGRVVKVKRAEKVKKKFLGRSVEVWVLYFTHPQDVPAIRDKIRKHPAVIDIYEYDIPFAKRYLIDKGLIPMEGEEELKLMSFDIETLYHEGEEFGTGPILMISYADESEARVITWKKIDLPYVEVVSTEKEMIKRFLRVVKEKDPDVLITYNGDNFDFAYLKKRCEKLGVSFTLGRDGSEPKIQRMGDRFAVEVKGRVHFDLYPVIRRTINLPTYTLEAVYEAVFGKPKEKVYAEEIATAWETGEGLERVARYSMEDARVTYELGREFFPMEAQLSRLIGQGLWDVSRSSTGNLVEWFLLRKAYERNELAPNKPDERELARRRGGYAGGYVKEPERGLWDNIVYLDFRSLYPSIIITHNVSPDTLNREGCRSYDVAPEVGHKFCKDFPGFIPSLLGNLLEERQKIKRKMKATLDPLEKNLLDYRQRAIKILANSYYGYYGYARARWYCRECAESVTAWGREYIEMVIRELEEKFGFKVLYADTDGLHATIPGADAETVKKKAMEFLNYINPKLPGLLELEYEGFYVRGFFVTKKKYAVIDEEGKITTRGLEIVRRDWSEIAKETQARVLEAILRHGDVEEAVRIVREVTEKLSKYEVPPEKLVIHEQITRELKDYKATGPHVAIAKRLAARGVKIRPGTVISYIVLKGSGRIGDRAIPFDEFDPTKHKYDADYYIENQVLPAVERILRAFGYRKEDLRYQKTRQVGLGAWLKPKGKKK
modifications: Thermococcus sp. JDF-3
- DNA (DNA): 2.0 nM
- dNTP (μM each) [4]: 16 ± 2 μM each
- Specific Activity (U/mg) × 10^4 Activated DNA (Activated DNA): 1.2 ± .07 (U/mg) × 10^4
- Specific Activity (U/mg) × 10^4 Primed M13 (Primed M13): 5.2 (U/mg) × 10^4
- Exo activity (U/mg) [5]: 915 U/mg
